Assay results published in patent US20050100965A1.

Legend:
[1] = biological target: (4C/A)-huIL-18 (human) (UniProt Q14116); assay: Biacore, (4C/A)-HuIL-18
[2] = biological target: 125I labeled rhuIL-18 (human) (UniProt Q14116); assay: Receptor Binding Assay: inhibition of 125I-rhu-IL-18 binding to IL-18Rαβ on TNF-treated KG-1 cells
[3] = biological target: (4C/A)-huIL-18 (human) (UniProt Q14116); assay: cell-based or functional assay
[4] = biological target: natural human IL-18 (human) (UniProt Q14116); assay: cell-based or functional assay
[5] = biological target: NEM-huIL-18 (human) (UniProt Q14116); assay: Biacore
[6] = biological target: (4C/A)-huIL-18 (human) (UniProt Q14116); assay: Biacore

Kd [1]: 0.19 nM
koff [1]: 2.6e-05 s⁻¹
kon [1]: 140000 M⁻¹ s⁻¹
IC50 [2]: 1 nM
KG-1, Neutralization Potency in vitro (IC50, nM) [3]: 0.03 nM
WBA, Neutralization Potency in vitro (IC50, nM) [4]: 5.7 nM
Kd [5]: 0.098 nM
Kd [6]: 0.135 nM
Substance: IL-18BP-Fc (from UniProt O95998 31-194) (Fc fusion)
